Laboratory results as given in patent publication US20140154261A1 (TORAY INDUSTRIES, published 2014).

Target: T1, CAPRIN-1 protein on the cell surface of human cancer cell lines (human, UniProt Q14444 2-709)
T1 sequence (looked up): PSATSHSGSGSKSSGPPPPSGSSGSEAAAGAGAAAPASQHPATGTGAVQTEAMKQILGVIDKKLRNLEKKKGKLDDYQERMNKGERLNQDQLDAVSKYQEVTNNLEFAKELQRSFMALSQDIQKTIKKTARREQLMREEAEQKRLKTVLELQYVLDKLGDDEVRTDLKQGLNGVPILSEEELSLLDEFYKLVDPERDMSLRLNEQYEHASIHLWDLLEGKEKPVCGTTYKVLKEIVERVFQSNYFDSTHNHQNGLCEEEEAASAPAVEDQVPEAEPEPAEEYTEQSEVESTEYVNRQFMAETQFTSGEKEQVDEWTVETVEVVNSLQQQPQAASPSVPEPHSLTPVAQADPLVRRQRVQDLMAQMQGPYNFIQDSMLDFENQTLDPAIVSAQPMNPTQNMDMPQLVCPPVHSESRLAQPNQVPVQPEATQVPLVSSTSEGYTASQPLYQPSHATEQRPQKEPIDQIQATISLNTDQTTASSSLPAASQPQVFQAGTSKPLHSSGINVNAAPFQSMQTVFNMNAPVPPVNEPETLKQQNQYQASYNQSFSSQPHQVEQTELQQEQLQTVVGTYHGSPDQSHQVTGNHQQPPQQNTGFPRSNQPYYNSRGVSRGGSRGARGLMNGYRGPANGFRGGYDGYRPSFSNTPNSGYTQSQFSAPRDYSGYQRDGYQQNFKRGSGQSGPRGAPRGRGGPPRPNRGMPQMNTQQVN
Test: cell-based or functional assay

B1: human-mouse chimeric comparative monoclonal antibody 7 (antibody, human IgG1, kappa, V domains shown)
VH: LQESGAELARPGASVKLSCKASGYTFTSYWMQWVKQRPGQGLEWIGAIYPGDGDTRYTQKFKGKATLTADKSSSTAYMQLSSLASEDSAVYYCARGEYGNYFAYWGQGTTVTVSS
VL: TSDASLGERVTITCKASQDINSYLSWFQQKPGKSPKTLIYRANRLVDGVPSRFSGSGSGQDYSLTISSLEYEDMGIYYCLQYDEFPLTFGGGTKLEIKQ
cytotoxic activity (ADCC, chromium 51 release) against MCF7, QG56, HCT-116, MIAPaCa-2 and Caki-2: < 5%

B2: human-mouse chimeric comparative monoclonal antibody 1 (antibody)
heavy: not shown
light: DIQMTQSPASLSASVGETVTITCRASGNIHNYLAWYQQKQGKSPQLLVYNAKTLADGVPSRFSGSGSGTQYSLKINSLQPEDFGSYYCQHFWSTLTFGAGTKLELKRTVAAPSVFIFPPSDEQLKSGTASVVCLLNNFYPREAKVQWKVDNALQSGNSQESVTEQDSKDSTYSLSSTLTLSKADYEKHKVYACEVTHQGLSSPVTKSFNRGEC
cytotoxic activity (ADCC, chromium 51 release) against MCF7, QG56, HCT-116, MIAPaCa-2 and Caki-2: < 5%

B3: human-mouse chimeric comparative monoclonal antibody 4 (antibody, human IgG1, kappa, V domains shown)
VH: EVQLHQFGAELVKPGASVKISCKASGYTFTDYNMDWVKQSHGKSLEWIGDINPNYDSTSYNQKFKGKATLTVDKSSSTAYMELRSLTSEDTAVYYCARSRSYDYEGFAYWGQGTLVTVSA
VL: SGDRVSLSCRASQSISNYLHWYQQKSHESPRLLIKYASQSISGIPSRFSGSGSGTDFTLSINSVETEDFGMYFCQQSNSWPYTFGAGTKLEIKQ
cytotoxic activity (ADCC, chromium 51 release) against MCF7, QG56, HCT-116, MIAPaCa-2 and Caki-2: < 5%

B4: human-mouse chimeric comparative monoclonal antibody 3 (antibody, human IgG1, kappa)
heavy: not shown
light: RTTSHMDSDIQLTQSPASLSASVGETVTITCRASGNIHNYLAWYQQKQGKSPQLLVYNAKTLADGVPSRFSGSGSGTQYSLKINSLQPEDFGSYYCQHFWSTLTFGGGTKLEIKQSDTVAAPSVFIFPPSDEQLKSGTASVVCLLNNFYPREAKVQWKVDNALQSGNSQESVTEQDSKDSTYSLSSTLTLSKADYEKHKVYACEVTHQGLSSPVTKSFNRGEC
cytotoxic activity (ADCC, chromium 51 release) against MCF7, QG56, HCT-116, MIAPaCa-2 and Caki-2: < 5%
